Molecular target: gbrap_human GABARAP (UniProt O95166)
Sequence (O95166 whole entry): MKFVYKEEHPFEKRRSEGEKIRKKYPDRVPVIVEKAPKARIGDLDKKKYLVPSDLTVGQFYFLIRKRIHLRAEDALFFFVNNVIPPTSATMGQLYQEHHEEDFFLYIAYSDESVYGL

Substance	effect of a mutation on the interaction
Pericentriolar material 1 protein (Homo sapiens), Q15154 L1973M	with no effect
Pericentriolar material 1 protein (Homo sapiens), Q15154 S1958Y	with no effect
Pericentriolar material 1 protein (Homo sapiens), Q15154 T1974P	with no effect
Pericentriolar material 1 protein (Homo sapiens), Q15154 D1959L	with no effect
Pericentriolar material 1 protein (Homo sapiens), Q15154 T1974M	with no effect
Pericentriolar material 1 protein (Homo sapiens), Q15154 V1964Y	decreasing interaction strength
Pericentriolar material 1 protein (Homo sapiens), Q15154 D1959G	with no effect
Pericentriolar material 1 protein (Homo sapiens), Q15154 D1959I	with no effect
Pericentriolar material 1 protein (Homo sapiens), Q15154 N1953I	with no effect
Pericentriolar material 1 protein (Homo sapiens), Q15154 V1966L	with no effect
Pericentriolar material 1 protein (Homo sapiens), Q15154 F1963K	disrupting interaction strength
Pericentriolar material 1 protein (Homo sapiens), Q15154 V1964D	decreasing interaction strength
Pericentriolar material 1 protein (Homo sapiens), Q15154 E1967P	with no effect
Pericentriolar material 1 protein (Homo sapiens), Q15154 L1971M	with no effect
Pericentriolar material 1 protein (Homo sapiens), Q15154 P1970K	disrupting interaction strength
Pericentriolar material 1 protein (Homo sapiens), Q15154 S1958I	with no effect
Pericentriolar material 1 protein (Homo sapiens), Q15154 I1954H	with no effect
Pericentriolar material 1 protein (Homo sapiens), Q15154 I1954T	with no effect
Pericentriolar material 1 protein (Homo sapiens), Q15154 I1954R	with no effect
Pericentriolar material 1 protein (Homo sapiens), Q15154 E1961H	with no effect
Pericentriolar material 1 protein (Homo sapiens), Q15154 S1958N	with no effect

Substance	effect of a mutation on the interaction
Pericentriolar material 1 protein (Homo sapiens), Q15154 E1961I	with no effect
Pericentriolar material 1 protein (Homo sapiens), Q15154 L1971R	with no effect
Pericentriolar material 1 protein (Homo sapiens), Q15154 L1973A	with no effect
Pericentriolar material 1 protein (Homo sapiens), Q15154 G1952Q	with no effect
Pericentriolar material 1 protein (Homo sapiens), Q15154 D1962Q	decreasing interaction strength
Pericentriolar material 1 protein (Homo sapiens), Q15154 Q1956I	with no effect
Pericentriolar material 1 protein (Homo sapiens), Q15154 I1975S	with no effect
Pericentriolar material 1 protein (Homo sapiens), Q15154 P1970Q	decreasing interaction strength
Pericentriolar material 1 protein (Homo sapiens), Q15154 K1965G	disrupting interaction strength
Pericentriolar material 1 protein (Homo sapiens), Q15154 I1975Y	with no effect
Pericentriolar material 1 protein (Homo sapiens), Q15154 N1953W	with no effect
Pericentriolar material 1 protein (Homo sapiens), Q15154 L1969D	with no effect
Pericentriolar material 1 protein (Homo sapiens), Q15154 D1959C	with no effect
Pericentriolar material 1 protein (Homo sapiens), Q15154 I1954M	with no effect
Pericentriolar material 1 protein (Homo sapiens), Q15154 N1953T	with no effect
Pericentriolar material 1 protein (Homo sapiens), Q15154 T1974Y	with no effect
Pericentriolar material 1 protein (Homo sapiens), Q15154 S1958L	with no effect
Pericentriolar material 1 protein (Homo sapiens), Q15154 D1968A	with no effect
Pericentriolar material 1 protein (Homo sapiens), Q15154 V1966D	disrupting interaction strength
Pericentriolar material 1 protein (Homo sapiens), Q15154 L1971D	with no effect

Now from value to substance:

effect of a mutation on the interaction	Substance
disrupting interaction strength	Pericentriolar material 1 protein (Homo sapiens), Q15154 F1963N
with no effect	Pericentriolar material 1 protein (Homo sapiens), Q15154 G1952K
with no effect	Pericentriolar material 1 protein (Homo sapiens), Q15154 E1961A
with no effect	Pericentriolar material 1 protein (Homo sapiens), Q15154 D1959Q
with no effect	Pericentriolar material 1 protein (Homo sapiens), Q15154 K1957H
decreasing interaction strength	Pericentriolar material 1 protein (Homo sapiens), Q15154 D1959V
disrupting interaction strength	Pericentriolar material 1 protein (Homo sapiens), Q15154 V1964A
with no effect	Pericentriolar material 1 protein (Homo sapiens), Q15154 K1972L
with no effect	Pericentriolar material 1 protein (Homo sapiens), Q15154 I1975T
with no effect	Pericentriolar material 1 protein (Homo sapiens), Q15154 T1974E
disrupting interaction strength	Pericentriolar material 1 protein (Homo sapiens), Q15154 V1964H
with no effect	Pericentriolar material 1 protein (Homo sapiens), Q15154 S1958A
with no effect	Pericentriolar material 1 protein (Homo sapiens), Q15154 G1952P
with no effect	Pericentriolar material 1 protein (Homo sapiens), Q15154 D1959W
with no effect	Pericentriolar material 1 protein (Homo sapiens), Q15154 L1971Q
with no effect	Pericentriolar material 1 protein (Homo sapiens), Q15154 I1975F
with no effect	Pericentriolar material 1 protein (Homo sapiens), Q15154 G1952M
with no effect	Pericentriolar material 1 protein (Homo sapiens), Q15154 L1969K
with no effect	Pericentriolar material 1 protein (Homo sapiens), Q15154 T1974A
disrupting interaction strength	Pericentriolar material 1 protein (Homo sapiens), Q15154 P1970S
with no effect	Pericentriolar material 1 protein (Homo sapiens), Q15154 K1965N
with no effect	Pericentriolar material 1 protein (Homo sapiens), Q15154 L1973C
with no effect	Pericentriolar material 1 protein (Homo sapiens), Q15154 G1952E
with no effect	Pericentriolar material 1 protein (Homo sapiens), Q15154 K1957T
with no effect	Pericentriolar material 1 protein (Homo sapiens), Q15154 K1965L
with no effect	Pericentriolar material 1 protein (Homo sapiens), Q15154 G1952N
with no effect	Pericentriolar material 1 protein (Homo sapiens), Q15154 E1960W
with no effect	Pericentriolar material 1 protein (Homo sapiens), Q15154 I1954E

Source: IntAct's records for PubMed 28712572
